In the RNAGym collection of RNA variant scans (doi:10.7554/elife.80360) one finds self-cleavage data, which are given here for 54 variants.

B1: Twister Ribozyme (parent)
chain: AACACUGCCAAUGCCGGUCCCAAGCCCGGAUAAAAGUGGAGGGGGCGG

The data set covers variants of B1. Description: self-cleavage, relative activity (ratio to wild type); higher = more cleavage; co-transcriptional.
For the variant AACACUACCAAUGCCGGUCCCAAGCCCGGAUAAAAGUGGAAGGGGCGG [G7A G41A], the self-cleavage is 0.122.

Consider AACACUGCCAAUGCCGGUCCCAAGCCCGGAUAAAAGUGGGGGGGUCGG [A40G G45U], for which the self-cleavage turned out to be 0.147.

Take GACACUGCGAAUGCCGGUCCCAAGCCCGGAUAAAAGUGGAGGGGGCGG [A1G C9G]: the self-cleavage is 0.315.

Turning to AACACUGCCAAAGCCGGUCCCAAGCCCGGGUAAAAGUGGAGGGGGCGG [U12A A30G], the self-cleavage was 1.01.

For AGCACUGCCAAUGCCGGUCCCAAGCCAGGAUAAAAGUGGAGGGGGCGG [A2G C27A], the self-cleavage came out at 0.0876.

As for AACACUGCCAAUGCCGGUCCCAAGCCCGGAUAAAAGUAGAGGGGGGGG [G38A C46G], the self-cleavage came out at 0.966.

As to AACACUGCCGAUGCCAGUCCCAAGCCCGGAUAAAAGUGGAGGGGGCGG [A10G G16A], the self-cleavage amounted to 1.13.

Turning to AACACUGCCAAUGCCGGUCCCACGCCCGGAUAAAAGUGGAGUGGGCGG [A23C G42U], the self-cleavage is 0.0925.

GACACUGCCAAUGCCGGUCCUAAGCCCGGAUAAAAGUGGAGGGGGCGG [A1G C21U]: the self-cleavage was 0.146.

AACUCUGCCUAUGCCGGUCCCAAGCCCGGAUAAAAGUGGAGGGGGCGG [A4U A10U]: the self-cleavage came to 0.0773.

For the variant AACACAGCCAAUGCCGGUCCCAAGCCCGGAUAAAAGUGUAGGGGGCGG [U6A G39U], the self-cleavage is 0.125.

For the variant AACACUGCCAAUGCCGGUCCCAAGCCCCGAUAAAAGUGGAGGGGCCGG [G28C G45C], the self-cleavage turned out to be 0.155.

With AACACUGCCAAUGCCGGUCCCAAGCCCAGACAAAAGUGGAGGGGGCGG [G28A U31C], the self-cleavage came to 0.835.

With AGCACUGCAAAUGCCGGUCCCAAGCCCGGAUAAAAGUGGAGGGGGCGG [A2G C9A], the self-cleavage was determined as 0.104.

Turning to AACACUGCCAAUGCCAGUCCCAAGCCCGGAUAAAAGAGGAGGGGGCGG [G16A U37A], the self-cleavage came to 0.457.

Take AACACUGCCAAUGCCGGACCCAAGCCCGGAUAAAAGUGGGGGGGGCGG [U18A A40G]: the self-cleavage is 0.0784.

Turning to AACACUGCCAAUGCCGGUCCCAAGCCCGGAGAAAAGUGGAGGGGGCCG [U31G G47C], the self-cleavage is 0.755.

Take AACACUGCCAAUUCCGGUCUCAAGCCCGGAUAAAAGUGGAGGGGGCGG [G13U C20U]: the self-cleavage was 0.134.

UACACUGCCAAUGCCGGUCCCAAGCCCUGAUAAAAGUGGAGGGGGCGG [A1U G28U]: the self-cleavage turned out to be 0.0658.

As for AACACUGCCAAUGCCGGUCCCAAGCCCGGUUAAAAGUGGAGGGGUCGG [A30U G45U], the self-cleavage came to 0.798.

For the variant UACACUGCCAAUGCCGGUCCCAAGACCGGAUAAAAGUGGAGGGGGCGG [A1U C25A], the self-cleavage stood at 0.0664.

Take AACACUGCCAAUGCCGGUCCCAAGCCCGGAUUAAAGUAGAGGGGGCGG [A32U G38A]: the self-cleavage was determined as 0.85.

In the case of AACACUGCCAUUGCCGCUCCCAAGCCCGGAUAAAAGUGGAGGGGGCGG [A11U G17C], the self-cleavage stood at 0.111.

For the variant AACACUGCCAAUGCCGGUCCCAAGCCCGGAUAAAAGCGGAGGGGGCCG [U37C G47C], the self-cleavage is 0.341.

As for AACACUGCAAUUGCCGGUCCCAAGCCCGGAUAAAAGUGGAGGGGGCGG [C9A A11U], the self-cleavage came to 0.767.

Consider AACACUGCCAAUGCCGGUCCCAAGCCCGGAUAAAAGUGGGGGGUGCGG [A40G G44U], for which the self-cleavage stood at 0.156.

AACACUGCCAAUGCCGGUCCCCAGCCCGGAUAAAAGUGGAGGCGGCGG [A22C G43C]: the self-cleavage is 0.145.

Regarding AACACUGCCAAAGCCGGUCCCAAGCCCGGAUAAAAGUGGAGCGGGCGG [U12A G42C], the self-cleavage amounted to 0.601.

AACACUGCCAAUGCCGAUCCCAAGCCCGCAUAAAAGUGGAGGGGGCGG [G17A G29C]: the self-cleavage was 0.222.

AACACUGCCAAUGCCGGUCCCAAGCCCGGAUAAAAAUGGAGUGGGCGG [G36A G42U]: the self-cleavage was 0.128.

Regarding AAAACUGCCAAUGCCGCUCCCAAGCCCGGAUAAAAGUGGAGGGGGCGG [C3A G17C], the self-cleavage stood at 0.0654.

As for AACACUGCCAAUGCCGGUCCCAAGCCCGGAUAACACUGGAGGGGGCGG [A34C G36C], the self-cleavage worked out at 0.104.

For the variant AACACUGCCAAUGUCGGUCCCAAGCCCGGAUAAGAGUGGAGGGGGCGG [C14U A34G], the self-cleavage came to 0.885.

Consider AACAGUGCCAAUGCCGGUCCCAAGGCCGGAUAAAAGUGGAGGGGGCGG [C5G C25G], for which the self-cleavage was 0.0808.

AUCACUGCCCAUGCCGGUCCCAAGCCCGGAUAAAAGUGGAGGGGGCGG [A2U A10C]: the self-cleavage came out at 0.449.

In the case of CACACUGCCAAUGCCGGUCCCAAGCCCGGAUAAAAGUGGAGGGGGAGG [A1C C46A], the self-cleavage was 0.148.

Turning to AACACCGCCAAUGCCGGUCCCAAGCCUGGAUAAAAGUGGAGGGGGCGG [U6C C27U], the self-cleavage came to 0.275.

Take AACACUGCCAAUGCCGGUCCCAACCCCGGAUAAAAGUCGAGGGGGCGG [G24C G38C]: the self-cleavage stood at 0.144.

With AGCACUGCCAAUGCCGGUGCCAAGCCCGGAUAAAAGUGGAGGGGGCGG [A2G C19G], the self-cleavage came to 0.121.

Regarding AACACUGCCAAUGCCGGUCUCAAGCCCGGAUAAAAGUGGUGGGGGCGG [C20U A40U], the self-cleavage was 0.125.

Regarding AACACUGCGAAUGCCGGUCCCAAGCCCGGAUAAAAGCGGAGGGGGCGG [C9G U37C], the self-cleavage came to 0.156.

As to AACACUGCCAAUGCCUUUCCCAAGCCCGGAUAAAAGUGGAGGGGGCGG [G16U G17U], the self-cleavage stood at 0.231.

For AACACUGCCAAUGCCGGUCCCAAGCCCGGAUAAAACUGGAGGGGGCAG [G36C G47A], the self-cleavage is 0.183.

AACACUGCCAAUGCCGGUCCCAAGCCCGGAUAGAAGUGGAGGGGGCGA [A33G G48A]: the self-cleavage amounted to 0.856.

For the variant AACACGGCCAAUGCCGCUCCCAAGCCCGGAUAAAAGUGGAGGGGGCGG [U6G G17C], the self-cleavage stood at 0.0484.

As for AACACUGCCAAUGCCGGUCCCAAGCCAGGAUAAAAGUGGAGAGGGCGG [C27A G42A], the self-cleavage amounted to 0.0939.

As to AACACUGCCAAUGCCGGUCGCAAGCCCGGAUAAAAGUGGAGGGGGCGA [C20G G48A], the self-cleavage was 0.124.

As for AACACUGCCAAUGCCGGUCCCAAGCCAGGAUAAACGUGGAGGGGGCGG [C27A A35C], the self-cleavage came out at 0.58.

Turning to AACACUGCCAAUGCCGGUCCCAAGCCCGGAUAAAAGUGGAGGAGGCCG [G43A G47C], the self-cleavage stood at 0.208.

Take AACACUGCCAAUGCCGGUCCCAAGCCAGGAUAAAAGUGGAGGGGUCGG [C27A G45U]: the self-cleavage was 0.207.

As to UACACUGCCAGUGCCGGUCCCAAGCCCGGAUAAAAGUGGAGGGGGCGG [A1U A11G], the self-cleavage was found to be 0.0739.

In the case of AACACUGCCAAUGCCGGUCCCAAGCCCGCAUAAAAGUGGAGGUGGCGG [G29C G43U], the self-cleavage worked out at 0.156.

For the variant AACACUGCCAAUGACGGUCCCAAGCCCGGAUAAAAGUGGAGGGGGGGG [C14A C46G], the self-cleavage stood at 0.87.

As to AACACUGCCAAUGCCGGUCCCAAGCCCGGAUAAAUUUGGAGGGGGCGG [A35U G36U], the self-cleavage was 0.472.
